Test results from patent US20040170955A1 (University of Texas, published 2004).
Ends that are not written are not given here.

B1: CPRECESIC (SEQ ID NO:123) soluble cyclic peptide (peptide)
peptide: CPRECESIC
modifications: disulfide (positions not given here); not fully specified; also: disulfide positions not determined, mixture of six MS species, possibly dimers
B2: Fyn-phosphorylated phage displaying RAILYRLAN (SEQ ID NO:116) (peptide)
peptide: RAILYRLAN
modifications: not fully specified (residue 5); also: displayed on phage
notes: whole phage tested

Columns and labels:
[1] = molecular target: Aminopeptidase A (APA, EC 3.4.11.7) on SK-RC-49/APA cells (UniProt Q07075 1-957, limits assumed); assay: cell-based or functional assay
Chain of Aminopeptidase A (APA, EC 3.4.11.7) on SK-RC-49/APA cells (Q07075 whole entry, the tested form may be a part): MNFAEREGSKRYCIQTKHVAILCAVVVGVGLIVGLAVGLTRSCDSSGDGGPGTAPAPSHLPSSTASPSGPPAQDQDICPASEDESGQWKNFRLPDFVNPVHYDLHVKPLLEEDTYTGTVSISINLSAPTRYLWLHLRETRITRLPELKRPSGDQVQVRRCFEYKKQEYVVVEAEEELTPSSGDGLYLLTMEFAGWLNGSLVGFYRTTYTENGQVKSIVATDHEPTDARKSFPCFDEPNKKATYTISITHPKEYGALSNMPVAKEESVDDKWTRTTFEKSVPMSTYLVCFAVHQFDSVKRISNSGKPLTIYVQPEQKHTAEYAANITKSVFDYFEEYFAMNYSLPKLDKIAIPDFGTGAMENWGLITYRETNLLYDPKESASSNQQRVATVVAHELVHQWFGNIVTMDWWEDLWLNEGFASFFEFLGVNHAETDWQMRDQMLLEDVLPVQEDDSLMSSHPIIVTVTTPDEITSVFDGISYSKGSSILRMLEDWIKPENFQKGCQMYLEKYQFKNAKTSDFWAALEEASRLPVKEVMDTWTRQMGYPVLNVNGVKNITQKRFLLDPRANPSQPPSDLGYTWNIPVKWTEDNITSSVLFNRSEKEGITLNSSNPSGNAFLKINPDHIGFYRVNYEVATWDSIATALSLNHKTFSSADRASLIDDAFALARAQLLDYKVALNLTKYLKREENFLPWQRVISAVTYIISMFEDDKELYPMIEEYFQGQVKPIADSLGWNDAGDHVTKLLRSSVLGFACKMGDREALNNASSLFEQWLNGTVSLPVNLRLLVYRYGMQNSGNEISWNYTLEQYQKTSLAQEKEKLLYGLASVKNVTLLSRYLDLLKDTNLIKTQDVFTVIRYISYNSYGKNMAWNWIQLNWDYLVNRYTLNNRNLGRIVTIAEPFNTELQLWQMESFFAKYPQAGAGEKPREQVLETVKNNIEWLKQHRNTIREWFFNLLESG

[2] = molecular target: T1, GST-β3cyto (GST fusion protein of the β3 integrin cytoplasmic domain) (UniProt P05106 742-788); assay: phosphorylated phage binding, β3 colonies / GST colonies
T1 construct: domain: cytoplasmic domain; Recombinant GST fusion coated on microtiter wells; also called β3-GST; β3 cytoplasmic domain fusion protein; not shown: glutathione S-transferase (GST) fusion partner
T1 sequence (P05106 742-788): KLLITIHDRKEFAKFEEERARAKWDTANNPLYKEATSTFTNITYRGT
Description: (§1) Phosphorylation of peptide libraries with src family protein kinases (Fyn, c-Src, Lyn, and Syc) and serine/threonine kinases such as a MAP kinase were performed as described previously (Schmitz et al., 1996; Dente et al., 1997; Gram et al., 1997). Briefly, phage particles were collected from culture supernatants by double precipitation with 20% polyethylene glycol 8000 in 2.5 M NaCl. Particles were dissolved at 10¹² particles/ml. Purified phage (10 μl) were incubated for 3 hours at room temperature with different concentrations (35 to 3,500 units) of protein kinases in a reaction buffer volume of 50 μl. The reaction mixtures were transferred to tubes containing 10 μg of agarose-conjugated anti-P-Tyr, anti-P-Ser, or anti-P-Thr monoclonal antibodies to select phage displaying phosphorylated peptides. Bound phage were eluted by washing the column with 0.3 ml of elution buffer (0.1 M NaCl/glycine/1 mg/ml BSA, pH 2.35). The eluates were neutralized with 2 M Tris-base and incubated with 2 ml of a mid-log bacteria culture.
(§2) Amino acid sequences of the phagemid encoded peptides were deduced from nucleotide sequences.

[3] = molecular target: T1, GST-β3cyto (GST fusion protein of the …); assay: phosphorylated phage binding, β3 colonies / BSA colonies
Description: as §1, §2

[4] = molecular target: T1, GST-β3cyto (GST fusion protein of the …); assay: phage binding to β3, colonies with Fyn-phosphorylated phage / unphosphorylated phage
Description: as §1, §2

| Binder | IC50 for APA enzyme inhibition (α-glutamyl-p-nitroanilide, colorimetric, SK-RC49/APA cells) [1] [µM] | β3 or β5/GST [2] [ratio] | β3 or β5/BSA [3] [ratio] | Phos/Unphos [4] [ratio] |
| --- | --- | --- | --- | --- |
| B1 | 800 |  |  |  |
| B2 |  | 1.3 | 20 | 2.8 |
